Experiment [1] has as its target T1, 生物素标记的RBD融合蛋白 (MERS-CoV, UniProt K9N5Q8 367-606). The experiment is described as follows: affinity measurement with biotin-labelled RBD fusion protein; method not stated.
Experiment [2] has as its target T1, 生物素标记的RBD融合蛋白. Described as above. This is another data set of the same source.

The values that follow come from patent CN109666070A (UNIV TSINGHUA, dated 2019).

B1: 单克隆抗体MERS-4 (antibody, V domains shown)
VH: EVQLVESGGGLVQPGRSLRLSCAASGFTFSNYAMYWVRQAPGKGLEWVALISYDISTDYYADSVKGRFTISRDNSKNTIYLQMNNLRTEDTALYYCAGNDYWGQGTLVTVSS
VL: QSVLTQSPSASGTPGQRVTISCSGSSSNIGNNYVYWYQQLPGTAPKLLIYWNDQRPSGVPDRFSGSKSGTSASLAISGLRSEDEADYYCAAWDDSLSGAVFGGGTQLTVLG
With B1, the “fold of Kd against that of MERS-4V2” value with 生物素标记的RBD融合蛋白 [1] is 1.71 fold. For the same molecule, in the experiment with 生物素标记的RBD融合蛋白 [2], the Ka turned out to be 8e+08 M⁻¹, the Kd worked out at 1.25 nM, the koff was 0.00101 s⁻¹ and the kon stood at 805000 M⁻¹ s⁻¹.
